Experimental data reported in patent US20090104177A1, “PEPTIDES FOR INHIBITING THE INTERACTION OF PROTEIN KINASE A AND PROTEIN KINASE A ANCHOR PROTEINS” (FORSCHUNGSVERBUND BERLIN E.V., priority 2004, published 2009).
No end group written: not given here.

Key:
RIIβ subunits from rats = RIIβ subunits from rats (Rattus norvegicus, UniProt P12369); assay: Surface plasmon resonance measurement of peptide binding to RIIβ
[1] = target: T1, regulatory RIIβ subunits of PKA (Rattus norvegicus, UniProt P12369); assay: RII overlay of membrane-bound (SPOT) peptides, radiolabelled RIIβ as probe, densitometry; type: binding; details: in words
T1 construct: Prof; Dr. Friedrich W. Herberg, University of Kassel, Germany (obtained from an academic laboratory, not a vendor)
T1 sequence (P12369 whole entry): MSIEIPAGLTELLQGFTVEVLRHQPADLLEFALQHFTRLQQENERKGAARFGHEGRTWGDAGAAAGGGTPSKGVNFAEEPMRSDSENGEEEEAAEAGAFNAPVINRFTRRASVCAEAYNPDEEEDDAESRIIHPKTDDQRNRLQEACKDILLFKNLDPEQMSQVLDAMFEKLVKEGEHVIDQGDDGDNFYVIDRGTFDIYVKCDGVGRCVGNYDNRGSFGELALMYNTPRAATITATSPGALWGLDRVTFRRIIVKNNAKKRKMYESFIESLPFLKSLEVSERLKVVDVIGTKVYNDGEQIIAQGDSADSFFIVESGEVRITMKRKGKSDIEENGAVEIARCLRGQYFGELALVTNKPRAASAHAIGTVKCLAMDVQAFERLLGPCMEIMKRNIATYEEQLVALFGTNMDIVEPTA
Text: (§1) Peptide libraries were synthesized by means of automatic SPOT synthesis on Whatman 50 cellulose membranes according to standard protocols using Fmoc chemistry and AutoSpot Robot ATE 222 (Intavis Bioanalytical Instruments AG, Cologne). The protective groups of the amino acid side chains were removed using a mixture of trifluoroacetic acid (TFA) in dichloromethane (DCM) (Frank, 1992; Kramer and Schneider-Mergener, 1998). For control, spots (about 50 nmol of peptide per spot) were cut from the cellulose membrane, removed from the membrane by treatment with 0.05 M NaOH, and analyzed using HPLC and MALDI-TOF mass spectrometry.
(§2) • 1. Regulatory RIIα (human) and RIIβ (rat) subunits of PKA, obtained from Prof. Dr. Friedrich W. Herberg, University of Kassel, Germany. • 2. Catalytic subunits of PKA, Promega, Mannheim, Germany, Order No. V5161 • 3. [γ-^32P]ATP, 5000 Ci/mmol, Amersham Biosciences, Brunswick, Germany, Order No. AA0018 • 4. Sephadex G 50, medium Pharmacia, Order No. 17-0043-01 • 5. Phosphate-buffered saline (PBS)
(§3) The ATP concentration was adjusted to 10 μM by addition of non-radioactive ATP (addition of 5 μl of a 1 mM solution). The batch was incubated on ice for another 50 min.
(§4) The reaction was quenched by adding dextran blue and removing free nucleotides. The free ATP was removed on a Sephadex G50 column.
(§5) Non-incorporated nucleotides were separated from the RII subunits by fractionation on Sephadex G 50 columns. • 1. Swelling of the Sephadex G 50 material: 20 g thereof was allowed to swell in 400 ml of PBS at room temperature overnight. Non-settled material was subsequently removed with a Pasteur pipette. The swollen material was aliquoted in 50 ml Falcon tubes and stored at 4° C. For preservation, sodium azide was added to make a final concentration of 0.01%. • 2. The material was poured into a 10 ml sterile disposable pipette sealed with a glass sphere. To settle the column bed, 50 ml of PBS containing 1 mg/ml BSA (bovine serum albumin) was allowed to pass.
(§6) Until used, the column was sealed with parafilm at the top thereof. • 3. The labelled RII subunits (500 μl), together with dextran blue (70 μl of a 20 mg/ml solution), were applied on the column (overall volume=570 μl). • 4. The sample was allowed to migrate into the matrix, followed by filling up with PBS. • 5. A short time before the dextran blue was eluted, collection of fractions was begun (2 fractions of 1.5 ml each, the other fractions 1 ml each). • 6. To determine the incorporation of ^32P, 1% (5.7 μl) of sample upstream of the column (corresponding to 1% of the radioactivity employed) and 3 μl of each fraction were used. • 7. The fractions of the first peak including the probe were combined. The incorporation rate in % was calculated and the specific activity (cpm/μg of protein) was determined.
(§7) • 1. The proteins (40 μg) were separated by means of SDS-PAGE and transferred on a PVDF membrane (PVDF: polyvinylidene fluoride) using a semi-dry electroblotting procedure. The membrane-associated proteins were stained with Ponceau S in order to identify the marker proteins on the membrane. Destaining was effected using TBS. • 2. The membrane was incubated in Blotto/BSA at 4° C. for 16 hours:
(§8) • 3. Blotto/BSA was replaced with fresh one and ^32P-labelled RII subunits were added (10^5 cpm/ml). This was incubated for 4-6 h at room temperature. • 4. The membrane was washed for 4×15 min in Blotto/BSA and for 2×10 min in 10 mM potassium phosphate buffer, pH 7.4, 0.15 M NaCl. • 5. RII-binding proteins were detected by exposition on a phosphoimager plate.
(§9) Identification of AKAP18δ-derived peptides inhibiting the interaction of AKAP proteins with the regulatory RIIα and RIIβ subunits of PKA. A: Peptides derived from the PKA binding domain of AKAP18δ were synthesized on two membranes. The membranes were incubated with radiolabelled regulatory RIIα (upper row) or RIIβ subunits (row below) of the PKA (RII overlay experiment). […]

human RIIα subunits = human RIIα subunits (Homo sapiens, UniProt P13861); assay: Surface plasmon resonance measurement of peptide binding to RIIα
human RIIα subunits, sequence (P13861 whole entry): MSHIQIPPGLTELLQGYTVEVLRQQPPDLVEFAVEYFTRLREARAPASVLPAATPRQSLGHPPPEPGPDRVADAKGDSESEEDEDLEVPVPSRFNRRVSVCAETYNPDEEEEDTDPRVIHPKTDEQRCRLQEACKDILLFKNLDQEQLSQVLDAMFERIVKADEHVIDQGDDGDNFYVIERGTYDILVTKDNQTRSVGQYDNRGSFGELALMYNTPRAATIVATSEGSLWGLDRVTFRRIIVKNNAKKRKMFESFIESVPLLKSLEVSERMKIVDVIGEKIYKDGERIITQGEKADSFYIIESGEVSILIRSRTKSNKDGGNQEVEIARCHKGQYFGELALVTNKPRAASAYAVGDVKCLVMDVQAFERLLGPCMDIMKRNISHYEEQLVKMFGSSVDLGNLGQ

[2] = target: T2, regulatory RIIα subunits of PKA (Homo sapiens, UniProt P13861); assay: RII overlay of membrane-bound (SPOT) peptides, radiolabelled RIIα as probe, densitometry; type: binding; details: for binding to RIIα subunits in RII overlay: human RIIα as probe, in words
T2 construct: Prof; Dr. Friedrich W. Herberg, University of Kassel, Germany (obtained from an academic laboratory, not a vendor)
T2 sequence (P13861 whole entry): as above
Text: as §1, §2, §3, §4, §5, §6, §7, §8, §9

RII subunits of the PKAs = assay: Summary statement on RII binding of AKAP18δ-derived negative control peptides; details: negative controls; in words
Text: They have in common that binding is no longer present due to structural differences (1, 2) or differences in charge (3, 4).

[3] = target: T3, regulatory RIIβ subunit of PKA (rat) (rat, UniProt P12369 1-416, 32P-labelled with the catalytic subunit of PKA when used as probe in the RII overlay experiments); assay: surface plasmon resonance
T3 construct: Radiolabelled probe in RII overlays; format in the surface plasmon resonance measurements is not described; also called RIIβ subunit of PKA from rats
T3 sequence (P12369 whole entry): as the sequence (P12369 whole entry) above

[4] = target: T4, regulatory RIIα subunit of PKA (human) (human, UniProt P13861 1-404, 32P-labelled with the catalytic subunit of PKA when used as probe in the RII overlay experiments); assay: RII overlay: SPOT peptide on membrane, 32P-labelled RIIα probe, phosphoimager, densitometry as % of AKAP18δ-wt
T4 construct: Radiolabelled probe in RII overlays; format in the surface plasmon resonance measurements is not described; also called human RIIα
T4 sequence (P13861 whole entry): as the sequence (P13861 whole entry) above

[5] = target: T3, regulatory RIIβ subunit of PKA (rat); assay: RII overlay: SPOT peptide on membrane, 32P-labelled RIIβ probe, phosphoimager, densitometry as % of AKAP18δ-wt
[6] = target: T4, regulatory RIIα subunit of PKA (human); assay: RII overlay on SPOT membrane with radiolabelled RIIα
[7] = target: T3, regulatory RIIβ subunit of PKA (rat); assay: RII overlay on SPOT membrane with radiolabelled RIIβ

RIIβ subunits from rats, sequence (P12369 whole entry): as the sequence (P12369 whole entry) above

Molecule | binding result [4] | binding result [5] | other results
PEDAELVRLSKRDVENAVLKAVQQY [AKAP18δ-L308D] | – | – | RIIβ binding KD (RIIβ subunits from rats): no binding; binding to RIIβ subunits in RII overlay [1]: weaker; RIIα binding KD (human RIIα subunits): no binding; binding to RIIα subunits in RII overlay [2]: weaker; binding of RII subunits of the PKAs (RII subunits of the PKAs): absent binding
ANDARLVRLSKRLYENAVLKAVQQY [A18δRIIα Hs2] | – | – | binding to RIIα subunits in RII overlay [2]: binding to RIIα
ANDARLVRLPKRLVENAVLKAVQQY [10/12] | – | – | binding to RIIβ subunits in RII overlay [1]: no RIIβ; binding to RIIα subunits in RII overlay [2]: bind RIIα
ANDARLVRLSKRLVENAVLKFVQQY [21/4] | – | – | binding to RIIβ subunits in RII overlay [1]: vice versa; binding to RIIβ subunits in RII overlay ([1]; listed as A18δRIIβRn1): binding to RIIβ; binding to RIIβ subunits in RII overlay ([1]; listed as A18δRIIβRnl): selectively binds RIIβ subunits; binding to RIIα subunits in RII overlay [2]: vice versa
ANDARLVRLSKRLVENAVLKAVQQY [peptide No. 7] | – | – | difference in binding of the two PKA subunits (RIIα vs RIIβ) ([2]; RII overlay on two membranes, quantitative evaluation (FIG. 3)): marked difference
PEDAELVRLSKRLPENAVLKAVQQY [AKAP18δ-P] | – | – | RIIβ binding KD (RIIβ subunits from rats): no binding; RIIα binding KD (human RIIα subunits): no binding; binding of RII subunits of the PKAs (RII subunits of the PKAs): absent binding
PEDAELVRLSKRLPENAPLKAVQQY [AKAP18δ-PP] | – | – | RIIβ binding KD (RIIβ subunits from rats): no binding; RIIα binding KD (human RIIα subunits): no binding; binding of RII subunits of the PKAs (RII subunits of the PKAs): absent binding
PEDAELVRLDKRLPENAPLKAVQQY (also: phosphorylated; listed as Homo sapiens) [AKAP18δ-phos] | – | – | binding of RII subunits of the PKAs (RII subunits of the PKAs): absent binding
ANDARLVRLSKRLRENAVLKAVQQY [A18δRIIα Hs1] | – | – | binding to RIIα subunits in RII overlay [2]: binding to RIIα
PEDAELVRLSKRLVENAVLKAVQQY [AKAP18δ-wt] | – | – | Kd (RIIβ subunits from rats): 1 to 6 nM; Kd (human RIIα subunits): 0.4 to 1.5 nM
ANDARLVRLNKRLVENAVLKAVQQY [10/11] | – | – | binding to RIIβ subunits in RII overlay [1]: no RIIβ; binding to RIIα subunits in RII overlay [2]: bind RIIα
PEDAELVRLSKRLVENAVEKAVQQY (also called AKAP18delta-L314E; No. W) [AKAP18δ-L314E] | – | – | Kd [3]: 22 nM
PEDAELVRLSKRLVENAVLNGVQQY (AKAP18δ-derived; also called No. O) [Peptide 15] | binds | binds | –
PEDAELVRLSKRLVENAVKNGNQQY (AKAP18δ-derived; also called No. R) [Peptide 18] | binds | binds | –
ANDARLVRLSKRLVENAVLKAVQQY (also called peptide 7; No. G) [peptide No. 7 (AKAP18δ-derived, FIG. 3)] | binds | binds | –
ANDARLVRLSKRLRENAVLKAVQQY (Member of the substitution library of peptide 7 (row 14, peptide 14); also called No. BB) [A18δRIIαHs1 (14/14)] | – | – | binding result [6]: binds
ARDAKLVRLSKRLVENAVLKAVQQY (AKAP18δ-derived; also called No. E) [Peptide 5] | binds | binds | –
ANDAKTQRLSQRLVENAVLKAVQQY (AKAP18δ-derived; also called No. L) [Peptide 12] | binds | binds | –
ANDARLVRLSKRLYENAVLKAVQQY (Member of the substitution library of peptide 7 (row 14, peptide 19); also called No. CC) [A18δRIIαHs2 (14/19)] | – | – | binding result [6]: binds
ANDAKTERLSKRLVENAVLKAVQQY (AKAP18δ-derived; also called No. J) [Peptide 10] | binds | binds | –
ANDAKTERLSQRLVENAVLKAVQQY (AKAP18δ-derived; also called No. K) [Peptide 11] | binds | binds | –
ASDARLVRLSKRLVENAVLKAVQQY (AKAP18δ-derived; also called No. H) [Peptide 8] | binds | binds | –
ASDAKTVRLSKRLVENAVLKAVQQY (AKAP18δ-derived; also called No. I) [Peptide 9] | binds | binds | –
ANDARLVRLNKRLVENAVLKAVQQY (Member of the substitution library of peptide 7 (row 10, peptide 11); also called peptide 10/11; No. EE) [A18δRIIαRn2 (10/11)] | – | – | binding result [7]: no binding; binding result [6]: binds

Second part, led by results:

binding result [4] | binding result [5] | Molecule | other results
binds | binds | PEDAELVRLSKRLVENAVKNGAQDY (AKAP18δ-derived; also called No. S) [Peptide 19] | –
binds | binds | PEDAELVRLSKRLVENAVLNGQQQY (AKAP18δ-derived; also called No. P) [Peptide 16] | –
binds | binds | PEDAELVRLSKRLVENAVLNGNQQY (AKAP18δ-derived; also called No. Q) [Peptide 17] | –
binds | binds | PEDAELVRLSKRLVENAVLQAVQQY (AKAP18δ-derived; also called No. N) [Peptide 14] | –
binds | binds | ASDAQLVRLSKRLVENAVLKAVQQY (AKAP18δ-derived; also called No. C) [Peptide 3] | –
binds | binds | ASDAKLVRLSKRLVENAVLKAVQQY (AKAP18δ-derived; also called No. D) [Peptide 4] | –
binds | binds | ARDAQLVRLSKRLVENAVLKAVQQY (AKAP18δ-derived; also called No. F) [Peptide 6] | –
